Experimental data as given in US20190022206A1 (UNIVERSITY OF COPENHAGEN, published 2019).

T1: biotinylated HPV16 Avi-L1 VLP, L1avi1 (H4-loop, HPV16) (Human papillomavirus type 16, UniProt P03101 14-505)
T1 construct: also called VLP1; Avi-L1 (H4-βJ coil)
T1 sequence: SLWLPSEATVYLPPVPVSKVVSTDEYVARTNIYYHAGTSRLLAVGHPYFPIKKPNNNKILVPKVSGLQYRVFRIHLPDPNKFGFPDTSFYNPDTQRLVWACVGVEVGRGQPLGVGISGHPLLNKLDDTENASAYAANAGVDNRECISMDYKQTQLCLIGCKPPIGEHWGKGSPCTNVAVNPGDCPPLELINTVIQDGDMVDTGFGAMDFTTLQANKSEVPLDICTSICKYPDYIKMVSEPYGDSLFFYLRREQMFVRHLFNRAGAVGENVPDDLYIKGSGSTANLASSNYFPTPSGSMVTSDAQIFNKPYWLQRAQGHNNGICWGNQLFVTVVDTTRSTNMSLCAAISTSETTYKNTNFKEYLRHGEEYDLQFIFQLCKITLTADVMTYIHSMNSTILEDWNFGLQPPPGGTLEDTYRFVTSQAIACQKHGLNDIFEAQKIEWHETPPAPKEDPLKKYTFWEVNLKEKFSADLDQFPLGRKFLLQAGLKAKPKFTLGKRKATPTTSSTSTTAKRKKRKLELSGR

T2: biotinylated HPV16 Avi-L1 VLP, L1avi3 (DE-loop, HPV16) (Human papillomavirus type 16, UniProt P03101 2-505)
T2 construct: also called VLP3; Avi-L1 (DE)
T2 sequence: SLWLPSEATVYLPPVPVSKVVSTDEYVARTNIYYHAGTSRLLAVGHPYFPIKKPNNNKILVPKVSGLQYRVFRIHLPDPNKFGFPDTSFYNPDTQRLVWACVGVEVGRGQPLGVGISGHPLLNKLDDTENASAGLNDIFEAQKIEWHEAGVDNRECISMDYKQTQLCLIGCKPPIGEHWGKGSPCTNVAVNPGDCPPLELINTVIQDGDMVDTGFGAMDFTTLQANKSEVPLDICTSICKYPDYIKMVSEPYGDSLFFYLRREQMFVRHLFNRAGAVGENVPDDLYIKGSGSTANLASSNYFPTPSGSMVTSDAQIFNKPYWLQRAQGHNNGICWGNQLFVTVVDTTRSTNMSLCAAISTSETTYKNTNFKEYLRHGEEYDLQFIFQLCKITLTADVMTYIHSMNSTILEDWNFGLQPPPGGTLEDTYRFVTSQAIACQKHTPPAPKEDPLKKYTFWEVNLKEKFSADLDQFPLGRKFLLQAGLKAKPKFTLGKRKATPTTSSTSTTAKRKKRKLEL

B1: HIS-RO-mSA (other)
chain: GSTSENRNKRIGGPKLRGNVTSNIKFPSDNKGKIIRGSNDKLNKNSEDVLEQSEKSLVSENVPSGLDIDDIPKESIFIQEDQEGQTHSELNPETSEHSKDLNNNGSKNESSDIISENNKSNKVQNHFESLSDLELLENSSQDNLDKDTISTEPFPNQKHKDLQQDLNDEPLEPFPTQIHKDYKEKNLINEEDSEPFPRQKHKKVDNHNEEKNVFHENGSANGNQGSLKLKSFDEHLKDEKIENEPLVHENLSIPNDPIEQILNQPEQETNIQEQLYNEKQNVEEKQNSQIPSLDLKEPTNEDILPNHNPLENIKQSESEINHVQDHALPKENIIDKLDNQKEHIDQSQHNINVLQENNINNHQLEPQEKPNIESFEPKNIDSEIILPENVETEEIIDDVPSPKHSNHETFEEETSESEHEEAVSEKNAHETVEHEETVSQESNPEKADNDGNVSQNSNNELNENEFVESEKSEHEAGGSGAEAGITGTWYNQHGSTFTVTAGADGNLTGQYENRAQGTGCQNSPYTLTGRYNGTKLEWRVEWNNSTENCHSRTEWRGQYQGGAEARINTQWNLTYEGGSGPATEQGQDTFTKVK
notes: also called A6
B2: HIS-GMZ2ggsmSA (other)
chain: GSTSENRNKRIGGPKLRGNVTSNIKFPSDNKGKIIRGSNDKLNKNSEDVLEQSEKSLVSENVPSGLDIDDIPKESIFIQEDQEGQTHSELNPETSEHSKDLNNNGSKNESSDIISENNKSNKVQNHFESLSDLELLENSSQDNLDKDTISTEPFPNQKHKDLQQDLNDEPLEPFPTQIHKDYKEKNLINEEDSEPFPRQKHKKVDNHNEEKNVFHENGSANGNQGSLKLKSFDEHLKDEKIENEPLVHENLSIPNDPIEQILNQPEQETNIQEQLYNEKQNVEEKQNSQIPSLDLKEPTNEDILPNHNPLENIKQSESEINHVQDHALPKENIIDKLDNQKEHIDQSQHNINVLQENNINNHQLEPQEKPNIESFEPKNIDSEIILPENVETEEIIDDVPSPKHSNHETFEEETSESEHEEAVSEKNAHETVEHEETVSQESNPEKADNDGNVSQNSNNELNENEFVESEKSEHEARSKAKEASSYDYILGWEFGGGVPEHKKEENMLSHLYVSSKDKENISKENDDVLDEKEEEAEETEEEELEEKNEEETESEISEDEEEEEEEEEKEEENDKKKEQEKEQSNENNDQKKDMEAQNLISKNQNNNEKNVKEAAESIMKTLAGLIKGNNQIDSTLKDLVEELSKYFKNHGGSGAEAGITGTWYNQHGSTFTVTAGADGNLTGQYENRAQGTGCQNSPYTLTGRYNGTKLEWRVEWNNSTENCHSRTEWRGQYQGGAEARINTQWNLTYEGGSGPATEQGQDTFTKVK
notes: also called A7
B3: HIS-GMZ2T:ggsmSA (other)
chain: GSTSENRNKRIGGPKLRGNVTSNIKFPSDNKGKIIRGSNDKLNKNSEDVLEQSEKSLVSENVPSGLDIDDIPKESIFIQEDQEGQTHSELNPETSEHSKDLNNNGSKNESSDIISENNKSNKVQNHFESLSDLELLENSSQDNLDKDTISTEPFPNQKHKDLQQDLNDEPLEPFPTQIHKDYKEKNLINEEDSEPFPRQKHKKVDNHNEEKNVFHENGSANGNQGSLKLKSFDEHLKDEKIENEPLVHENLSIPNDPIEQILNQPEQETNIQEQLYNEKQNVEEKQNSQIPSLDLKEPTNEDILPNHNPLENIKQSESEINHVQDHALPKENIIDKLDNQKEHIDQSQHNINVLQENNINNHQLEPQEKPNIESFEPKNIDSEIILPENVETEEIIDDVPSPKHSNHETFEEETSESEHEEAVSEKNAHETVEHEETVSQESNPEKADNDGNVSQNSNNELNENEFVESEKSEHEARSKTKEYAEKAKNAYEKAKNAYQKANQAVLKAKEASSYDYILGWEFGGGVPEHKKEENMLSHLYVSSKDKENISKENDDVLDEKEEEAEETEEEELEGGSGAEAGITGTWYNQHGSTFTVTAGADGNLTGQYENRAQGTGCQNSPYTLTGRYNGTKLEWRVEWNNSTENCHSRTEWRGQYQGGAEARINTQWNLTYEGGSGPATEQGQDTFTKVK
notes: also called A8
B4: mSA-PfRH5-HIS (other)
chain: AEAGITGTWYNQHGSTFTVTAGADGNLTGQYENRAQGTGCQNSPYTLTGRYNGTKLEWRVEWNNSTENCHSRTEWRGQYQGGAEARINTQWNLTYEGGSGPATEQGQDTFTKVKGGSLSFENAIKKTKNQENNLTLLPIKSTEEEKDDIKNGKDIKKEIDNDKENIKTNNAKDHSTYIKSYLNTNVNDGLKYLFIPSHNSFIKKYSVFNQINDGMLLNEKNDVKNNEDYKNVDYKNVNFLQYHFKELSNYNIANSIDILQEKEGHLDFVIIPHYTFLDYYKHLSYNSIYHKYSTYGKYIAVDAFIKKINETYDKVKSKCNDIKNDLIATIKKLEHPYDINNKNDDSYRYDISEEIDDKSEETDDETEEVEDSIQDTDSNHTPSNKKKNDLMNRTFKKMMDEYNTKKKKLIKCIKNHENDFNKICMDMKNYGTNLFEQLSCYNNNFCNTNGIRFHYDEYIHKLILSVKSKNLNKDLSDMTNILQQSELLLTNLNKKMGSYIYIDTIKFIHKEMKHIFNRIEYHTKIINDKTKIIQDKIKLNIWRTFQKDELLKRILDMSNEYSLFITSDHLRQMLYNTFYSKEKHLNNIFHHLIYVLQMKFNDVPIKMEYFQTYKKNKPLTQHHHHHH
notes: mSA fused by GGS to PfRH5, C-terminal His tag; also called A9
B5: mSA-ID1ID2a-HIS (other)
chain: AEAGITGTWYNQHGSTFTVTAGADGNLTGQYENRAQGTGCQNSPYTLTGRYNGTKLEWRVEWNNSTENCHSRTEWRGQYQGGAEARINTQWNLTYEGGSGPATEQGQDTFTKVKGGSNYIKGDPYFAEYATKLSFILNPSDANNPSGETANHNDEACNCNESGISSVGQAQTSGPSSNKTCITHSSIKTNKKKECKDVKLGVRENDKDLKICVIEDTSLSGVDNCCCQDLLGILQENCSDNKRGSSSNDSCDNKNQDECQKKLEKVFASLTNGYKCDKCKSGTSRSKKKWIWKKSSGNEEGLQEEYANTIGLPPRTQSLYLGNLPKLENVCEDVKDINFDTKEKFLAGCLIVSFHEGKNLKKRYPQNKNSGNKENLCKALEYSFADYGDLIKGTSIWDNEYTKDLELNLQNNFGKLFGKYIKKNNTAEQDTSYSSLDELRESWWNTNKKYIWTAMKHGAEMNITTCNADGSVTGSGSSCDDIPTIDLIPQYLRFLQEWVENFCEQRQAKVKDVITNCKSCKESGNKCKTECKTKCKDECEKYKKFIEACGTAGGGIGTAGSPWSKRWDQIYKRYSKHIEDAKRNRKAGTKNCGTSSTTNAAASTDENKCVQSDIDSFFKHLIDIGLTTPSSYLSNVLDDNICGADKAPWTTYTTYTTTEKCNKERDKSKSQSSDTLVVVNVPSPLGNTPYRYKYACQCKIPTNEETCDDRKEYMNQWSCGSARTMKRGYKNDNYELCKYNGVDVKPTTVRSNSSKLDHHHHHH
notes: mSA fused at the amino terminus by Gly-Gly-Ser to the ID1-ID2a domains of VAR2CSA, C-terminal 6x histidine tag; made in baculovirus-infected High-Five cells; also called A4; mSA-VAR2CSA
B6: mSA-Pfs25-HIS (other)
chain: AEAGITGTWYNQHGSTFTVTAGADGNLTGQYENRAQGTGCQNSPYTLTGRYNGTKLEWRVEWNNSTENCHSRTEWRGQYQGGAEARINTQWNLTYEGGSGPATEQGQDTFTKVKGGSNKLYSLFLFLFIQLSIKYNNAKVTVDTVCKRGFLIQMSGHLECKCENDLVLVNEETCEEKVLKCDEKTVNKPCGDFSKCIKIDGNPVSYACKCNLGYDMVNNVCIPNECKNVTCGNGKCILDTSNPVKTGVCSCNIGKVPNVQDQNKCSKDGETKCSLKCLKENETCKAVDGIYKCDCKDGFIIDNESSICTAFSAYNILNLSIMFILFSVCFFIM
notes: also called A10
B7: mSA-RO-HIS (other)
chain: AEAGITGTWYNQHGSTFTVTAGADGNLTGQYENRAQGTGCQNSPYTLTGRYNGTKLEWRVEWNNSTENCHSRTEWRGQYQGGAEARINTQWNLTYEGGSGPATEQGQDTFTKVKGGSTSENRNKRIGGPKLRGNVTSNIKFPSDNKGKIIRGSNDKLNKNSEDVLEQSEKSLVSENVPSGLDIDDIPKESIFIQEDQEGQTHSELNPETSEHSKDLNNNGSKNESSDIISENNKSNKVQNHFESLSDLELLENSSQDNLDKDTISTEPFPNQKHKDLQQDLNDEPLEPFPTQIHKDYKEKNLINEEDSEPFPRQKHKKVDNHNEEKNVFHENGSANGNQGSLKLKSFDEHLKDEKIENEPLVHENLSIPNDPIEQILNQPEQETNIQEQLYNEKQNVEEKQNSQIPSLDLKEPTNEDILPNHNPLENIKQSESEINHVQDHALPKENIIDKLDNQKEHIDQSQHNINVLQENNINNHQLEPQEKPNIESFEPKNIDSEIILPENVETEEIIDDVPSPKHSNHETFEEETSESEHEEAVSEKNAHETVEHEETVSQESNPEKADNDGNVSQNSNNELNENEFVESEKSEHEARSKAKEASSYDYILGWEFGGGVPEHKKEENMLSHLYVSSKDKENISKENDDVLDEKEEEAEETEEEELEEKNEEETESEISEDEEEEEEEEEKEEENDKKKEQEKEQSNENNDQKKDMEAQNLISKNQNNNEKNVKEAAESIMKTLAGLIKGNNQIDSTLKDLVEELSKYFKNHRSHHHHHH
notes: also called A5

Molecular target: T1, biotinylated HPV16 Avi-L1 VLP, L1avi1 …
Assay: biotinylated VLPs mixed with excess mSA-antigen, density gradient ultracentrifugation, SDS-PAGE

Binder | binding result
B1 | no binding
B2 | no binding
B3 | no binding
B4 | no binding
B5 | no binding
B6 | no binding
B7 | no binding

Molecular target: T2, biotinylated HPV16 Avi-L1 VLP, L1avi3 …
Assay: coupling: biotinylated VLPs mixed with excess mSA-antigen, density gradient ultracentrifugation, SDS-PAGE

Binder | binding result
B1 | binds
B2 | binds
B3 | binds
B4 | binds
B5 | binds
